{"source": "paper PMC11513889", "proteins": {"B1": {"name": "mARC1 (Homo sapiens) (protein)", "chain": "GAAGSSALARFVLLAQSRPGWLGVAALGLTAVALGAVAWRRAWPTRRRRLLQQVGTVAQLWIYPVKSCKGVPVSEAECTAMGLRSGNLRDRFWLVINQEGNMVTARQEPRLVLISLTCDGDTLTLSAAYTKDLLLPIKTPTTNAVHKCRVHGLEIEGRDCGEATAQWITSFLKSQPYRLVHFEPHMRPRRPHQIADLFRPKDQIAYSDTSPFLILSEASLADLNSRLEKKVKATNFRPNIVISGCDVYAEDSWDELLIGDVELKRVMACSRCILTTVDPDTGVMSRKEPLETLKSYRQCDPSERKLYGKSPLFGQYFVLENPGTIKVGDPVYLLGQ"}}, "substrate": "NC(=O)NO", "experiment": "purified protein", "details": "1 mM NADH, NB5R3, CYB5B, 20 mM MES pH 6.0, 37 °C", "data": [{"protein": "B1", "values": [{"measurement": "Km", "value": 7, "unit": "mM"}]}]}
